Measurements taken from patent publication US20220193270A1, “METHOD FOR ENHANCING TUMOR GROWTH” (MINERVA BIOTECHNOLOGIES CORPORATION, priority 2013, published 2022).

How the values were obtained:
Assay type in all cases: cell-based, human
[1] = system: MUC1-positive T47D breast cancer cells; assay: RT-PCR of cancer stem cell markers and chromatin rearrangement factors in T47D cells cultured in serum-free minimal media with agent
Procedure: (§1) Example 3: Agents that are able to maintain stem cells in the naïve state transform cancer cells into cancer stem cells wherein only a small number of cells are required for engraftment. Cancer cells were cultured according to standard practice. In the controls, the cancer cells were cultured in their normal media: RPMI for T47D breast cancer cells, DU145 and PC3 prostate cancer cells. However, the test agents, recombinant proteins human NME1 dimers, bacterial HSP593 NME1 dimers, human NME7-AB and 2i, were added to a serum-free minimal media to eliminate potential interference from the many growth factors and cytokines in serum.
Serum-free Minimal Media 500 mL includes the following components: 394 mL DMEM/F12, GlutaMAX; 100 mL Knockout™ Serum Replacement; 5.0 mL 100×MEM Non-essential Amino Acid Solution; 0.9 mL P-mercaptoethanol, 55 mM stock.
(§2) To this serum-free minimal media, rhNME1 (aka NM23) was added to a final concentration of 8 nM, or bacterial HSP593 recombinant NME1 was added to a final concentration of 8 nM, or rhNME7-AB was added to a final concentration of 4 nM, or 2i inhibitors, PD0325901 and CHIR99021, which inhibit the MAP kinase pathway and GSK3, respectively, were added to a final concentration of 3 μM and 1 μM.
When a rho kinase inhibitor, “Ri” or “ROCi”, was added it was Y27632 from Stemgent (Cambridge, Mass.), added immediately before use to a final concentration of 10 uM.
Example 3a: Breast cancer T47D cells were cultured either in the traditional RPMI growth media or in a minimal stem cell media to which was added either human NME1 dimers, also known as NM23-H1, bacterial HSP593 NME1 dimers, human NME7-AB, or kinase inhibitors known as ‘2i’. What these agents have in common is that they are each able to promote the growth of stem cells in the naive state or are able to revert primed state stem cells to the less mature naive state. We observed that some of the T47D cancer cells cultured in any of these agents became non-adherent. These ‘floaters’ were also morphologically different. The addition of a rho kinase inhibitor, called ‘Ri’ or ‘ROCP here caused most of the cells to remain attached to the surface. […] When a rho kinase inhibitor is added, all the cells remain attached but the RT-PCR measurements indicate that the resultant measure is of a mixture of the cells that were transformed and those that were not or were not yet.
Example 3c: In this example, the effect of ‘2i’ inhibitors on cancer cells was tested. Recall that 2i is the name given to 2 small molecules, […] that inhibit the MAP kinase pathway and GSK3 respectively. […] In this experiment, we cultured MUCl-positive T47D breast cancer cells in minimal media to which was added either 2i or NME7-AB.

[2] = system: DU145 MUC1-positive prostate cancer cells; assay: RT-PCR of cancer stem cell markers in DU145 cells cultured with agent; settings: after 9-10 passages; FIG. 11b
Procedure: as §1, §2
Example 3b: Prostate cancer cells were also cultured as described above with either human NME1 dimers, bacterial NME1 dimers, NME7-AB, or 2i inhibitors. […] Thus, the RT-PCR measurements of the cancer stem cell markers are lower than that of the T47D cells, which could be explained by it being the measure of transformed cells and non-transformed cells. In the case of breast cancer cells, we were able to isolate the fully transformed cancer stem cells by collecting the floating cells, but were not able to do so here. DU145 MUC1-positive prostate cancer cells were cultured in RPMI media as a control and in minimal media to which was added recombinant human NME1/NM23 dimers, bacterial HSP593 dimers, or human NME7-AB. […] There was about a 2-8-fold increase in OCT4, MUC1 and CDH1/E-cadherin. However, after serial passaging under these same culture conditions, the increases in expression of cancer stem cell markers became more pronounced. We reasoned that serial passaging allowed more time for cells to transform since we could not rapidly collect floating cells.

[3] = system: PC3 MUC1-negative prostate cancer cells; assay: RT-PCR of stem cell markers in PC3 cells cultured with agent
Procedure: as §1, §2
PC3 MUCl-negative prostate cancer cells were also tested for their ability to transform into cancer stem cells when cultured in agents that are able to maintain stem cells in the naïve state. PC3 cells were cultured as described above with either human NME1 dimers, bacterial NME1 dimers or NME7-AB. […] Thus, the RT-PCR measurements of the cancer stem cell markers may be lower because measurements will be the average of transformed cells and non-transformed cells.

[4] = serum-free minimal media with agent vs RPMI, FIG. 6
[5] = summary statement, cells not named

B1: NME7-AB: recombinant human NME7 variant (A and B domains, SEQ ID NO:39) secreted as a monomer; 'NME7' in the experiments means this protein (protein)
chain: MEKTLALIKPDAISKAGEIIEIINKAGFTITKLKMMMLSRKEALDFHVDHQSRPFFNELIQFITTGPIIAMEILRDDAICEWKRLLGPANSGVARTDASESIRALFGTDGIRNAAHGPDSFASAAREMELFFPSSGGCGPANTAKFTNCTCCIVKPHAVSEGLLGKILMAIRDAGFEISAMQMFNMDRVNVEEFYEVYKGVVTEYHDMVTEMYSGPCVAMEIQQNNATKTFREFCGPADPEIARHLRPGTLRAIFGKTKIQNAVHCTDLPEDGLLEVQYFFKILDN
modifications: Human NME7-AB
notes: 'NME7' in the experiments means this protein
expression of NANOG, KLF2, KLF4 and TBX3 ([1]; FIG. 6): modest increases | expression of CDH1 (E-cadherin), MUC1 and NANOG ([1]; FIG. 7): increases | expression of CXCR4, SOX2 and OCT4 ([1]; FIG. 7): dramatic increases | expression of stem cell markers KLF2 and KLF4 ([1]; FIG. 7): modest increases | expression level of the cancer stem cell markers ([1]; FIG. 9 and FIG. 10, combinations with 2i versus NME7-AB alone): even higher expression level | expression of MBD3, CHD4, BRD4 and JMJD6 ([1]; cancer cells cultured in agent, FIG. 13, FIG. 14): naturally suppressed | overexpression of metastasis receptor CXCR4 ([1]; floaters after seven (7) days in recombinant human NME7-AB, FIG. 21 legend): more than 100 fold | expression of CXCR4 over control cells cultured in RPMI media ([1]; floating cells after 7-10 days in minimal media with 4 nM rhNME7-AB, cells used for implantation): 130 times | expression of chromatin rearrangement factors MBD3 and CHD4 ([1]; minimal media with agent, FIG. 13, FIG. 14): suppressed expression | expression of metastatic receptor CXCR4 relative to T47D cells in normal growth media ([1]; serum-free minimal media with agent as single growth factor vs RPMI, FIG. 6): ~200 times | CDH1 (E-cadherin) expression increase ([1]; serum-free minimal media with agent vs RPMI): about 10 fold | MUC1 expression increase [1, 4]: about 10 fold | OCT4 expression increase [1, 4]: about 50 times | SOX2 expression increase [1, 4]: ~200 times | up-regulation of CXCR4 [1, 5]: 200 × | up-regulation of KLF4 [1, 5]: 4 × | up-regulation of MUC1 [1, 5]: 10 × | up-regulation of SOX2 [1, 5]: > 150 × | expression of NANOG and OCT4 [2]: significant increases | increase in the expression of CDH1/E-cadherin [2]: 9 fold | expression of stem cell markers SOX2, OCT4 and NANOG ([3]; after passage in agent, FIG. 12a): modest increases | expression of cancer stem cell or stem cell markers ([3]; serial passaging in the media, FIG. 12b): decreased
